# Test results taken from patent publication US8207309B2, “Human synthetic single-chain antibodies directed against the common epitope of mutant P53 and their uses” (Ramot at Tel-Aviv University Ltd., priority 2005, dated 2012).
# Entries after “also recorded” stand apart in the source; their conditions may differ. Like-named read-outs stand apart in the source and are kept apart here.
# How the values were obtained:
# [1] = test system: BSA, Streptavidin, amyloid peptide (SEQ ID NO:2), MAP-PrP, PaP; settings: ELISA, FIG. 9, SEQ ID NOs:2-4
# [2] = target: T1, FRHSVV peptide (SEQ ID NO:1; common epitope of mutant p53) (Homo sapiens, UniProt P04637); experiment: Binding specificity ELISA of scFvs (FIG. 9)
# T1 construct: A biotin conjugate of the peptide (FRHSVV)
# [3] = target: T2, common epitope of mutant p53 (FRHSVV; SEQ ID NO:1) (Homo sapiens, UniProt P04637); experiment: BIAcore analysis of scFv binding to immobilized FRHSVV-biotin peptide; settings: FRHSVV-biotin on streptavidin chip, 1:1 Langmuir model, read-out: affinity (binding constant) towards the common epitope (SEQ ID NO:1)
# T2 construct: A biotin conjugate of the peptide (FRHSVV)
# Experimental: Binding was determined using the BIACore at the indicated concentrations of antibodies. RU=resonance units. The binding constant was determined using the software that is supplied with the BIAcore instrument (wwwdotBiacoredotcom).
# BIAcore Analysis—Real time analysis of the interaction between scFvs and FHRSVV-biotin were determined using BIAcore technology (Biacore AB, Uppsala, Sweden) according to manufacturer's instructions. The peptide FRHSVV-biotin was immobilized on a streptavidin coated sensor chip surface SA. The amount of immobilized peptide was 200 pg/mm^2, the binding was in HBS buffer (10 mM Hepes PH 7.4, 150 mM NaCl, 0.005% Tween-20, 3.4 mM EDTA). Several concentrations of purified scFv (62 nM, 125 nM, 250 nM, 1 μM and 2 μM) were injected at a flow rate of 20 μl/minute. […] Regeneration of the sensor chip was performed using 10 μl of 10 mM HCl. The kinetics parameters of the binding reactions were determined by BIAevaluation 4.0 Software (Biacore AB) using the 1:1 Langmuir model. The dissociation rate (off-rate) constant Kd and the association rate constant (on-rate) Ka were determined simultaneously according to manufacturer's instructions.
# The scFv F2 and E6 antibodies display high affinity binding of the mutant epitope—To determine the affinity binding of the isolated scFvs towards the target peptide (SEQ ID NO:1), the BIAcore technology was employed. […]
Molecule,binding to the other peptides or proteins tested [1],binding to peptide of the common epitope of mutant p53 (SEQ ID NO:1) [2],binding to peptide of the common epitope of mutant p53 (SEQ ID NO:1) ([2]; listed as A4),Kd [3] [nM]
A4 scFv: human scFv clone; VL CDRs SEQ ID NOs:36-38 (protein) scFv: VQLLESGGGLVQPGGSLRLSCAASGFTFSGYWMHWVRQAPGKGLEWVSEISGSGDSTHYGDSVKGRFTISRDNSKNTLYLQMNSLRAEDTAVYYCARGRNGSLDYWGQGTLVTVSSGSAGGGGSGGGGSGGGGSDIVLTQPPSASGTPGQRVTISCTGNSSNIGAGYDVHWYQQLPGKAPKLLIYSNNQRPSGVPDRFSGSKSGTSASLAISGLRSEDEADYYCAAWDDSLSSVVFGGGTKLTV,low affinity,high affinity,highly specific; also recorded: high binding specificity,
B6 scFv: human scFv clone; VL CDRs SEQ ID NOs:27-29 (protein) scFv: VQLLESGGGLVQPGGSLRLSCAASGFTFSGYWMHWVRQAPGKGLEWVSEISGSGDSTHYGDSVKGRFTISRDNSKNTLYLQMNSLRAEDTAVYYCARGRNGSLDYWGQGTLVTVSSGSAGGGGSGGGGSGGGGSDIVLTQPPSASGTPGQRVTISCTGSSANIGAGYDVHWYQQLPGKAPKLLIYDNDKRPSGVPDRFSGSKSGTSASLAISGLRSEDEADYYCAAWDDRLSGVVFGGGTKVTV,low affinity,,,
"A6 scFv: human scFv, SEQ ID NO:115; VL CDRs SEQ ID NOs:60-62 (protein, Single chain Fv) scFv: VQLLESGGGLVQPGGSPRLSCAASGFTFSGYWMHWVRQAPGKGLEWVSEISGSGDSTHYGDSVKGRFTISRDNSKNTLYLQMNSLRAEDTAVYYCARGRNGSLDYWGQGTLVTVSSGSAGGGGSGGGGSGGGGSDIVLTQPPSASGTPGQRVTISCTGGRFNIGDYAVNWYQQLPGKAPKLLIYDNDRRPSGVSDRFSGSKSGTSASLAISGLRSEDEADYYCAAWDDSLDGLVFGGGTQLTV",,,,23
